Results on 1 molecule are retold here after patent US20220332804A1 (CSL INNOVATION, published 2022).

Holding throughout (assay): SPR, antibody captured, C2 as analyte;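 also: biacore at 37 °C, anti-C2 mAbs held by immobilised goat anti-human IgG, C2 alanine or serine mutants injected, double-referenced sensorgrams fitted to a 1:1 kinetic or steady-state model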
In general terms: SPR reads the build-up and loss of mass on a sensor chip optically.

Test [1] has as its target T1, human C2 E686A (human, UniProt P06681 21-752).
T1 sequence: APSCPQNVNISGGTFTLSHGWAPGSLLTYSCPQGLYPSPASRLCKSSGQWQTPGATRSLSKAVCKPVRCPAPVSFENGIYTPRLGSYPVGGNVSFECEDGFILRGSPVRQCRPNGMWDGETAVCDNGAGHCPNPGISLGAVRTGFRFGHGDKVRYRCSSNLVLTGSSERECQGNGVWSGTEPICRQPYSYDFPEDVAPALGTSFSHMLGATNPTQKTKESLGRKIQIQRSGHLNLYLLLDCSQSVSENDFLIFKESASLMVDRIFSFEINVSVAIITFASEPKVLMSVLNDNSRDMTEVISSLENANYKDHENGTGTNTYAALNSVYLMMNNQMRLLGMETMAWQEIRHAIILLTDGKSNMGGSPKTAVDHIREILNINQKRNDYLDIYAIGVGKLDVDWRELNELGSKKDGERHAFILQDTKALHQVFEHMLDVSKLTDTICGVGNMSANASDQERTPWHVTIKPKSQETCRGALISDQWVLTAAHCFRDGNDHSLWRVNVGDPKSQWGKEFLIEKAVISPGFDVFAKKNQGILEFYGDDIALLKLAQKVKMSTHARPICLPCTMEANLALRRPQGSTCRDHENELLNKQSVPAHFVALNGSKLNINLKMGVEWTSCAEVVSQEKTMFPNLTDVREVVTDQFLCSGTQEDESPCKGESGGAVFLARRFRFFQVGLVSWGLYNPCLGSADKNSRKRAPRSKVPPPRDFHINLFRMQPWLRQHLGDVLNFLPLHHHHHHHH

Test [2] concerns the target T2, human C2 E275A (human, UniProt P06681 21-752).
T2 sequence: T1 sequence with E255A, A666E

For test [3], the target named is T3, human C2 D282A (human, UniProt P06681 21-752).
T3 sequence: T1 sequence with D262A, A666E

In test [4] the target is T4, human C2 G414A (human, UniProt P06681 21-752).
T4 sequence: T1 sequence with G394A, A666E

Substitutions are numbered along the chain they refer to.

B1: RF16-242 (antibody, human IgG4 S228P, lambda, V domains shown)
VH: EVQLLQSGAEVKKPGESLKISCKGSGYSFTSYWIGWVRQMPGKGLEWMGIIYPGDSDTRYSPSFQGQVTISADKSISTAYLQWSSLKASDTAMYYCARRGHYGDYFDYWGQGTLVTVSS
VL: SYELTQPPSVSVSPGQTARITCSGDALPKKYAYWYHQKSGQAPVLVIYEDRRRPSEIPERFSGSSSGTMATLTITGAQVEDEGVYFCYSRDRAGNQRVFGGGTQLTVLG
notes: pH-dependent anti-C2 antibody from a phage display library
As a reminder, the Kd is a measure of binding affinity in units of concentration. B1: the Kd in test [1] stood at 32.6 nM; in test [2], 42.8 nM; in test [3], 8 nM; in test [4] it was 4.2 nM.
